The results in this text go back to the supplement of paper PMC10567573.

± gives the standard deviation.

The data set is described as follows: protein stability index of a GFP-peptide fusion (GPS, HEK-293T) (PSI 1-6); higher = more stable.
Setting [1] is: treatment: DMSO, c terminus: a fixed tail appended.
The mark [2] stands for this setting: treatment: MLN4924 1 uM, 8 h, c terminus: a fixed tail appended.
Where [3] appears, read: treatment: DMSO, c terminus: native.
Setting [4] is: treatment: MLN4924 1 uM, 8 h, c terminus: native.
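Note: 24-mer peptide tiles fused after GFP, lentivirally expressed, FACS-sorted into six equal bins by GFP/DsRed ratio, decoded by Illumina sequencing, PSI is the read-weighted mean bin number.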

Take MATEGLHENETLASLKSEAESLKG [GNB5]: the protein stability index by setting is: under setting [1], 5.31 ± 0.23; under setting [2], 5.2 ± 0.15.

With MCPLYDPNRQLWIELAPLSMPRIN [GAN], the protein stability index runs as follows: under setting [1], 2.22 ± 0.11; under setting [2], 2.23 ± 0.28.

For MEEGERSPLLSQETAGQKPLSVHR [TSPAN10], the protein stability index runs as follows: under setting [1], 5.08 ± 0.11; under setting [2], 5.02 ± 0.18.

Turning to METFDPTELPELLKLYYRRLFPYS [PRIM1], the protein stability index runs as follows: under setting [1], 2.43 ± 0.51; under setting [2], 2.38 ± 0.35.

As for MGIVNLNIHMNFTHICRSHNSINQ [SLC2A12], the protein stability index reads like this: under setting [1], 2.73 ± 0.52; under setting [2], 2.9 ± 0.46.

Take MGIYQMYLCFLLAVLLQLYVATEA [SLC22A15]: the protein stability index under setting [1] came out at 2.92 ± 0.38 and the protein stability index under setting [2] stood at 2.84 ± 0.41.

As for MGLYDGMEHLIYGEPRKLLTQDWV [MAGEA10], the protein stability index by setting is: under setting [1], 2.25 ± 0.31; under setting [2], 2.28 ± 0.51.

Consider MIMLKDRRMTVVGRLEGLIQPDDL [FAF2], for which the protein stability index stood at 2.34 ± 0.25 under setting [1] and 2.56 ± 0.29 under setting [2].

With MKDRTQELRTAKDSDDDDDVAVTV [STX1A], the protein stability index is, setting by setting: under setting [1], 5.11 ± 0.33; under setting [2], 5.43 ± 0.32.

In turn, MLATRNFSGGKSGGNKKSDGVKES [CAMK2A] gave a protein stability index under setting [1] of 4.51 ± 0.7 and a protein stability index under setting [2] of 4.54 ± 0.12.

Consider MLEASEWATIEGLVELLQPFKQVA [ZBED1], for which the protein stability index is, setting by setting: under setting [1], 2.23 ± 0.76; under setting [2], 2.27 ± 0.23.

For the sequence MLERRYTPYPNLYPDQSPSEDWTM [CLCN6], the protein stability index runs as follows: under setting [1], 3 ± 0.3; under setting [2], 3.16 ± 0.23.

In the case of MLPTVITDIKDESCCMTEEIFGPV [ALDH8A1], the protein stability index was 3.83 ± 0.2 under setting [1] and 3.81 ± 0.13 under setting [2].

With MLRSGLSGLGSCLPGSYLSSECHT [KRT36], the protein stability index worked out at 2.42 ± 0.12 under setting [1] and 2.37 ± 0.092 under setting [2].

As to MLYEKQKQQNVAHCMLVSNRVSWW [ZBED1], the protein stability index came to 2.08 ± 0.17 under setting [1] and 2.31 ± 0.2 under setting [2].

Take MNPYKIDIGAVYSHRPNQHNTVKL [PRIM1]: the protein stability index stood at 2.79 ± 0.06 under setting [1] and 2.43 ± 0.37 under setting [2].

With MPAATVDHSQRICEVWACNLDEEM [CNOT7], the protein stability index runs as follows: under setting [1], 4.65 ± 0.41; under setting [2], 4.77 ± 0.28.

Turning to MPEEVHHGEEEVETFAFQAEIAQL [HSP90AB1], the protein stability index is 5.24 ± 0.28 under setting [1] and 5.16 ± 0.14 under setting [2].

Regarding MQGNQILVFPSSSSSSSSQAPGQP [ZBTB22], the protein stability index reads like this: under setting [1], 4.28 ± 0.24; under setting [2], 4.22 ± 0.22.

Turning to MQIAVPCAFLLLRLLVGLALATLR [TMEM175], the protein stability index by setting is: under setting [1], 2.46 ± 0.28; under setting [2], 2.26 ± 0.17.

Take MQRGARLPAEVAGLSQVLLRGGGQ [POMT2]: the protein stability index was determined as 3.6 ± 0.27 under setting [1] and 3.64 ± 0.21 under setting [2].

Take MRHEELLTKTFQGPAVVCGTPTSH [LYSMD4]: the protein stability index was determined as 3.82 ± 0.19 under setting [1] and 3.82 ± 0.13 under setting [2].

With MRLNSTGEVPVLIHGENIICEATQ [GDAP1], the protein stability index came to 3.69 ± 0.17 under setting [1] and 3.8 ± 0.45 under setting [2].

Turning to MRSNYPPPLSSAALRGAGPTRRN [C6orf223], the protein stability index by setting is: under setting [3], 3.1 ± 1.3; under setting [4], 3.18 ± 0.51.

Regarding MTLLPGDNSDYDYSALSCTSDASF [KCNG1], the protein stability index is, setting by setting: under setting [1], 3.79 ± 0.27; under setting [2], 3.87 ± 0.24.

With MTVMSGENVDEASAAPGHPQDGSY [KCNA1], the protein stability index stood at 5.37 ± 0.21 under setting [1] and 5.12 ± 0.14 under setting [2].

As to MTVVRMDASVQPGPFRTLLQFLYT [RHOBTB1], the protein stability index runs as follows: under setting [1], 2.41 ± 0.4; under setting [2], 2.25 ± 0.4.

MVDIIFHYPFLGAMGDHSKKKPGT [ISL2]: the protein stability index reads like this: under setting [1], 2.34 ± 0.28; under setting [2], 2.38 ± 0.61.

Sequence MVKEPVEDTDPSTLSFNMSDKYPI [EDARADD] registered a protein stability index under setting [1] of 4.37 ± 0.43 and a protein stability index under setting [2] of 4.5 ± 0.29.

As to MVRKIGCYAAMKKKIYAMGGGSYG [GAN], the protein stability index reads like this: under setting [1], 2.28 ± 0.17; under setting [2], 2.45 ± 0.38.

NAIPGRTDIELEIYGMEGIPEKDM [ZNF207] returned a protein stability index under setting [1] of 4.23 ± 0.35 and a protein stability index under setting [2] of 4.37 ± 0.29.

Take NAVKYVSNIKFCSFHPLQYIGFYG [PDS5B]: the protein stability index is 2.89 ± 0.25 under setting [1] and 2.35 ± 0.54 under setting [2].

Turning to NDIFQAANPYWTSRGSSVSMSGGR [TRIM63], the protein stability index amounted to 3.76 ± 0.34 under setting [1] and 3.63 ± 0.062 under setting [2].

For the sequence NESALVKEKELSIELANIRDEVAF [MTUS2], the protein stability index runs as follows: under setting [1], 4.42 ± 0.28; under setting [2], 4.33 ± 0.46.

With NEVRRGSPVLLGWVEQAYADKCVC [TIAF1], the protein stability index was determined as 2.64 ± 0.087 under setting [1] and 2.88 ± 0.27 under setting [2].

NFFTTLRVVHHKFHSQRHGSKKD [TMEM120A]: the protein stability index stood at 3.32 ± 0.33 under setting [3] and 3.3 ± 0.45 under setting [4].

For the sequence NIHENKRTGSLFKIWLVVPSLLEL [KLHDC10], the protein stability index is, setting by setting: under setting [1], 3.16 ± 0.49; under setting [2], 3.15 ± 0.42.

Consider NIHMNFTHICRSHNSINQSLDESV [SLC2A12], for which the protein stability index was determined as 2.56 ± 0.25 under setting [1] and 2.54 ± 0.23 under setting [2].

Turning to NILFDFVKKKKEEGVIDSSDKEIV [EIF5], the protein stability index worked out at 3.65 ± 0.12 under setting [1] and 3.74 ± 0.27 under setting [2].

In the case of NISCFFRLVDRDSVWGYDLGLRSL [MYORG], the protein stability index under setting [1] turned out to be 3.01 ± 0.41 and the protein stability index under setting [2] amounted to 2.95 ± 0.7.

On to NKALSIILHLICLLEKVPCTLEQD [FEM1C], for which the protein stability index stood at 2.87 ± 0.25 under setting [1] and 3.13 ± 0.71 under setting [2].

NKKGFWSYGPVILVVLVVAVVASS [TOR1AIP2]: the protein stability index by setting is: under setting [1], 1.78 ± 0.42; under setting [2], 1.83 ± 0.042.

Sequence NKQKCVERNEVRNVFKELQIMQGL [STK32A] displayed a protein stability index under setting [1] of 2.94 ± 0.4 and a protein stability index under setting [2] of 2.93 ± 0.24.

Regarding NLLLQPTTNPHTSASHRPCVNGDV [SMG5], the protein stability index is 3.48 ± 0.23 under setting [1] and 3.54 ± 0.43 under setting [2].

Regarding NNPFAKGFRGSDDMELHRMSRMQS [TBX5], the protein stability index was found to be 4.15 ± 0.33 under setting [1] and 4.06 ± 0.22 under setting [2].

Take NPGTDAVAQTSLEEFNVLEMEVMR [FATE1]: the protein stability index runs as follows: under setting [1], 4.71 ± 0.18; under setting [2], 4.68 ± 0.13.

For NQAGFTLHSAIYAARPDVKCVVHI [ADD1], the protein stability index stood at 3.1 ± 0.42 under setting [1] and 3.15 ± 0.62 under setting [2].

Regarding NQEITKAFHVRRTNRVKECLAKGT [RHOBTB2], the protein stability index is, setting by setting: under setting [1], 3.41 ± 0.51; under setting [2], 3.64 ± 0.7.

On to NSFSLNSSISSSARRTTRSEPIRR [MAP2], for which the protein stability index by setting is: under setting [1], 4.46 ± 0.27; under setting [2], 4.53 ± 0.13.

For the sequence NSIAHYRQVNIRTANCTTANQNCV [KCNA1], the protein stability index is, setting by setting: under setting [1], 3.17 ± 0.17; under setting [2], 3.19 ± 0.27.

As for NSSQLLLRRHAGLLDGLARRVGIL [SCARA5], the protein stability index is, setting by setting: under setting [1], 2.72 ± 0.027; under setting [2], 2.69 ± 0.28.

On to NSVCSKFRKEIKSKSADNQEYFER [RHOBTB1], for which the protein stability index by setting is: under setting [1], 4.26 ± 0.19; under setting [2], 4.45 ± 0.32.

For NTNLHTHQRTHTGEKPFTCHECGK [ZNF75A], the protein stability index by setting is: under setting [1], 4.51 ± 0.14; under setting [2], 4.54 ± 0.18.

In the case of NTTLTQYQLLATHVPTVWAIDQYR [RHOBTB1], the protein stability index amounted to 2.75 ± 0.56 under setting [1] and 2.41 ± 0.43 under setting [2].

NVEDHINPKLPNISLDVLQPSFPE [POMT2]: the protein stability index by setting is: under setting [1], 4.58 ± 0.22; under setting [2], 4.7 ± 0.15.

Take NVLSVNLPDNFTLKEDGMETVPWF [TPH1]: the protein stability index runs as follows: under setting [1], 2.75 ± 0.21; under setting [2], 2.92 ± 0.17.

Consider NYMVQTEDQYIFIHDALLEAVTCG [PTPRD], for which the protein stability index reads like this: under setting [1], 2.25 ± 0.35; under setting [2], 2.13 ± 0.37.

As to PAITATLLDFMCRIIPNFYPPLEG [INTS3], the protein stability index was 3.07 ± 0.13 under setting [1] and 3.1 ± 0.32 under setting [2].

Take PAPPPPAGGATAWGDLLGEDSLAA [SNAP91]: the protein stability index by setting is: under setting [1], 5.13 ± 0.22; under setting [2], 5.11 ± 0.13.

In the case of PATSPLVLAIPRRLRVELECEEGE [TRIM35], the protein stability index runs as follows: under setting [1], 4.92 ± 0.22; under setting [2], 4.78 ± 0.13.

Turning to PAVEACENRRKVLYQRAPRNIHRH [TCF25], the protein stability index by setting is: under setting [1], 3.88 ± 0.23; under setting [2], 3.81 ± 0.15.

Consider PAVENKQQIGDAIRMIVRGTLGSC [PLK2], for which the protein stability index was 3.03 ± 0.32 under setting [1] and 3.03 ± 0.19 under setting [2].

With PDGVCLSGGRGPQGDKAIREQGPR [PBXIP1], the protein stability index runs as follows: under setting [1], 5.21 ± 0.14; under setting [2], 4.88 ± 0.35.

Turning to PDIRTKDIEDVFYKYGAIRDIDLK [SRSF1], the protein stability index by setting is: under setting [1], 3.59 ± 0.12; under setting [2], 3.62 ± 0.24.

Consider PESETSILLSWTPPRSDTIANYEL [PTPRD], for which the protein stability index reads like this: under setting [1], 3.09 ± 0.35; under setting [2], 2.96 ± 0.39.

In the case of PETHIFTAPEEVPKVSDQALVSAH [DMRTC1], the protein stability index was 4.96 ± 0.34 under setting [1] and 4.92 ± 0.11 under setting [2].

For PFKFHMLHSGLVHGLAFWFDVAFI [CARM1], the protein stability index amounted to 2.75 ± 0.15 under setting [1] and 2.97 ± 0.2 under setting [2].

Sequence PFSEFFKLRFNRKKKGMYRKAITE [PWWP2B] displayed a protein stability index under setting [1] of 2.35 ± 0.43 and a protein stability index under setting [2] of 2.9 ± 0.27.

As to PFTVSPNTHVSQVFNLFRTMGLRH [CLCN6], the protein stability index was determined as 2.39 ± 0.45 under setting [1] and 2.45 ± 0.38 under setting [2].

With PGAHGRFMPQGAGGHTREARIQTL [RSAD1], the protein stability index was 3.63 ± 0.35 under setting [1] and 3.67 ± 0.29 under setting [2].

For PGNGTHGLSPEEKEQLSNDRETQE [ELOA2], the protein stability index amounted to 5.73 ± 0.074 under setting [1] and 5.75 ± 0.16 under setting [2].

In the case of PGSCGAGAPSPGSSDVSTAGTGAS [ELF3], the protein stability index is, setting by setting: under setting [1], 4.98 ± 0.29; under setting [2], 5.08 ± 0.17.
